Drawing on patent publication US6306649, this text covers activity for 1 sequence.

A value given as a limit tells only on which side of the number the result lay.

For this data set, the target named is ZFHD1 (Zif268 zinc fingers-Oct1 homeodomain chimera) fused to 3xFKBP (UniProt P08046+P14859). The experiment in a line: cell_activity. As to conditions: SEAP reporter in HT1080 cells; rapamycin-dependent, peak at 5 nM; no SEAP without either fusion.
Chain of ZFHD1 (Zif268 zinc fingers-Oct1 homeodomain chimera) fused to 3xFKBP (P08046 whole entry, change not shown, chain 1 of 2, the tested form may be a part): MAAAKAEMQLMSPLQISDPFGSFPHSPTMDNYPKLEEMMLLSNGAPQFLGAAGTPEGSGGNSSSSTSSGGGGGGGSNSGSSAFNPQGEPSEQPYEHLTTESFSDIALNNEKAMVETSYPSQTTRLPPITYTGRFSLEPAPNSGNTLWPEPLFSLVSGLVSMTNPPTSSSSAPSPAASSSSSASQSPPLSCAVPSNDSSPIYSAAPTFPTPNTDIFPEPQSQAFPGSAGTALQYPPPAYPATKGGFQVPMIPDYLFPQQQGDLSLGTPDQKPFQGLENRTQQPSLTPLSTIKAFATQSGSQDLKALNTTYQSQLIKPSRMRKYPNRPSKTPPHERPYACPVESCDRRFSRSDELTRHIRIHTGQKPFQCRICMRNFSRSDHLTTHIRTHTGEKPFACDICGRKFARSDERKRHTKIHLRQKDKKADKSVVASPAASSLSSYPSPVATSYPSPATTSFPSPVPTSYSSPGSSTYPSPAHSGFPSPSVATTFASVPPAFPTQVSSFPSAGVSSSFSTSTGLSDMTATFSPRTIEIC
Chain of ZFHD1 (Zif268 zinc fingers-Oct1 homeodomain chimera) fused to 3xFKBP (P14859 whole entry, change not shown, chain 2 of 2, the tested form may be a part): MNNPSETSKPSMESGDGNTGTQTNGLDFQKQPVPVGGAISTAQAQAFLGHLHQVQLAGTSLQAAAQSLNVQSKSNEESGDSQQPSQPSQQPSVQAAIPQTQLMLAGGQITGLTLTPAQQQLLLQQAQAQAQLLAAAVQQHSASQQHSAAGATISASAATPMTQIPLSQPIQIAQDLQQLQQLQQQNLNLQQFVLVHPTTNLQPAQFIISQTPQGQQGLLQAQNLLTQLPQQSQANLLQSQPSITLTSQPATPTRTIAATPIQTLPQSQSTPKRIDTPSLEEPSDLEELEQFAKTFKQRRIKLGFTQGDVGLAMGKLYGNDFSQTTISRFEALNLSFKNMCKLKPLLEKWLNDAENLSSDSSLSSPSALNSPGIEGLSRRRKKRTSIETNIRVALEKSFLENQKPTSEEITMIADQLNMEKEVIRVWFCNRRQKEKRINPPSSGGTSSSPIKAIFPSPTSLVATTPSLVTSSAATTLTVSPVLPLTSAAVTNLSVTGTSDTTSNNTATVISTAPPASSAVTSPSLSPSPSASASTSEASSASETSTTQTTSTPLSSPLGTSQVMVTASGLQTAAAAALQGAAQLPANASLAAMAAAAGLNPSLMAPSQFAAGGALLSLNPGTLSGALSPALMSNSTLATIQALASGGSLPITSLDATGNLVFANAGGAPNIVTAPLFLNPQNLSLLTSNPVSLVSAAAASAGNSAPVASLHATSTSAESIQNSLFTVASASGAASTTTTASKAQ

Turning to “GCTAGCTAATGATGGGCGCTCGAGTAATGATGGGCGGTCGACTAATGATGGGCGCTCGAGTAATGATGGGCGTCTAGCTAATGATGGGCGCTCGAGTAATGATGGGCGGTCGACTAATGATGGGCGCTCGAGTAATGATGGGCGTCTAGCTAATGATGGGCGCTCGAGTAATGATGGGCGGTCGACTAATGATGGGCGCTCGAGTAATGATGGGCGTCTAGA (double strand) [12x ZFHD1 binding sites (pZHWTx12)]”, the activity was > 1000 fold.
